Biological target: T1, TAP (Homo sapiens, UniProt Q03518+Q03519)
T1 sequence (Q03518 1-748): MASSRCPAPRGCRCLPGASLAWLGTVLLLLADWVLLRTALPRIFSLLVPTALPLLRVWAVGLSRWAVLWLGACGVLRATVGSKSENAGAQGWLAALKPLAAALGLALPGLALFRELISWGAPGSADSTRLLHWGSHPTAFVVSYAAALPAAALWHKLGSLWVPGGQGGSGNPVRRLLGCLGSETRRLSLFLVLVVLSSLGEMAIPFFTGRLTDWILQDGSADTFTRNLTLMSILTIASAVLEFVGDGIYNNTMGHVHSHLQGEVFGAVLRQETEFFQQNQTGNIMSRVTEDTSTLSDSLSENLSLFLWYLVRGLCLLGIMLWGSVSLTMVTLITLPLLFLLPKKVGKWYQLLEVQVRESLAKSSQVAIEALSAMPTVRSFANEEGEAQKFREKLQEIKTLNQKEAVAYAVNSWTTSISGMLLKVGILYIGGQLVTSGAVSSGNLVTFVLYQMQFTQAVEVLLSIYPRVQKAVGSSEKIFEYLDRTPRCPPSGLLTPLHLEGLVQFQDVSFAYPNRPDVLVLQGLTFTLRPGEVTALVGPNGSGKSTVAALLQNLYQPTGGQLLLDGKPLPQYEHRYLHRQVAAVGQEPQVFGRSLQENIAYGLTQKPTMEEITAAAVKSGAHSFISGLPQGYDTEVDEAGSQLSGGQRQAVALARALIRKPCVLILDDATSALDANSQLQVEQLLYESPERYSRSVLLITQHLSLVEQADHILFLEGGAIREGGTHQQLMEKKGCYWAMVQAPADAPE
T1 sequence (Q03519 1-686): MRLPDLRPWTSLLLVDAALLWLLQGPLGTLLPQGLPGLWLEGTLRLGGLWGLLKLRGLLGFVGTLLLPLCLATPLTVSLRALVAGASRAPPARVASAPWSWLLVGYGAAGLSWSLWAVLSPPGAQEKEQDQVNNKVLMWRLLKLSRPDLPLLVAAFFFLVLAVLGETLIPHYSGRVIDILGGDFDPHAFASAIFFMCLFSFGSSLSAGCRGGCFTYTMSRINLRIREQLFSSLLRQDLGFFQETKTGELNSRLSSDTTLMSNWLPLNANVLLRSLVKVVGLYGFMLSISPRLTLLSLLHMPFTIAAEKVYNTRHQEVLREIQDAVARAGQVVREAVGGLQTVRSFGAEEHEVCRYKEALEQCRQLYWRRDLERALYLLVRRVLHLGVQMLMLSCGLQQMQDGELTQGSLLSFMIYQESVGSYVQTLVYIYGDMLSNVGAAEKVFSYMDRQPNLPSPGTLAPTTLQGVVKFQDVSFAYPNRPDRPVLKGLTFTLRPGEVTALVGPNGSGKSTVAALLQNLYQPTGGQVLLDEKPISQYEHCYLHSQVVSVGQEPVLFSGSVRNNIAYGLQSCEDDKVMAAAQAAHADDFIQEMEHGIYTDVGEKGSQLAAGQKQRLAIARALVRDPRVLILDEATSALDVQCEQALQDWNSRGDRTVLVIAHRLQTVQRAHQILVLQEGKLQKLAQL
Test: TAP affinity prediction (consensus scoring, log IC50)
Parameters: unit not given here
Details: variant versus RK9
Protocol: TAP affinity prediction: Predicting the TAP affinity, and therefore the TAP transport efficiency, was performed using the consensus scoring methods described by Peters et al. (49). The TAP affinity score is the sum of the matrix elements of the C-terminus and three N-terminal residues, for any arbitrary length represented by log (IC50) values. […] A low TAP score corresponds to a peptide well suited for TAP binding, and a high TAP score corresponds to low TAP affinity.
A TAP affinity algorithm was used to determine TAP-peptide binding log IC50 scores (49) (Table 5) and predict TAP escape mutations.

QLRPGGKKK
Increase of TAP log IC50 value versus RK9 (difference): 1.81

RLRPGGKKQ
Increase of TAP log IC50 value versus RK9 (difference): 0.57

From patent publication US20090012261A1, “HLA Epitope Identification” (priority 2007, published 2009)
